# Source: PMC3553496 (Science signaling, 2011)
# T1: Dynein heavy chain 6 peptide (18-mer) (human)
# T1 peptide: EKERPPKPEAPWLPTATW
# T2: Large proline-rich protein BAT3 peptide (18-mer) (human)
# T2 peptide: QTLGQQVPGFPTAPTRVV
# T3: Paxillin-associated protein with ARF GAP activity 3 peptide (18-mer) (human)
# T3 peptide: GISQIRPPPLPPQPPSRL
# T4: Protein Shroom 3 peptide (18-mer) (human)
# T4 peptide: ASDSGRGPQRPDARLLRS
# T5: SRA stem-loop–interacting RNA binding protein, mitochondrial peptide (18-mer) (human)
# T5 peptide: VQVHTRRPKLPQTSDDEK
# T6: Protein FAM134C peptide (18-mer) (human)
# T6 peptide: ALVEVLGPYEPLLSRVQA
# T7: Eukaryotic translation initiation factor 2-a kinase 3 peptide (18-mer) (human)
# T7 peptide: VRISEKFPSSPKALESVT
# T8: Vigilin peptide (18-mer) (human)
# T8 peptide: PTYKDAFPPLPEKAACLE
# T9: Cathepsin B peptide (18-mer) (human)
# T9 peptide: CGTFLGGPKPPQRVMFTE
# T10: Chromodomain helicase-DNA binding protein 3 peptide (18-mer) (human)
# T10 peptide: YLNLSQEPAHPAMALHAR
# T11: Calpain-2 catalytic subunit peptide (18-mer) (human)
# T11 peptide: AGTLFQDPSFPAIPSALG
# T12: CDK5 and ABL1 enzyme substrate 1 peptide (18-mer) (human)
# T12 peptide: GCIALAAPGTPAAGLAAG
# T13: Serotransferrin peptide (18-mer) (human)
# T13 peptide: NLREGTCPEAPTDECKPV
# Experiments:
# Assay in all cases: peptide or protein array
# [1] = target: T1, Dynein heavy chain 6 peptide (18-mer)
# [2] = target: T2, Large proline-rich protein BAT3 peptide …
# [3] = target: T3, Paxillin-associated protein with ARF …
# [4] = target: T4, Protein Shroom 3 peptide (18-mer)
# [5] = target: T5, SRA stem-loop–interacting RNA binding …
# [6] = target: T6, Protein FAM134C peptide (18-mer)
# [7] = target: T7, Eukaryotic translation initiation …
# [8] = target: T8, Vigilin peptide (18-mer)
# [9] = target: T9, Cathepsin B peptide (18-mer)
# [10] = target: T10, Chromodomain helicase-DNA binding …
# [11] = target: T11, Calpain-2 catalytic subunit peptide …
# [12] = target: T12, CDK5 and ABL1 enzyme substrate 1 …
# [13] = target: T13, Serotransferrin peptide (18-mer)
relative binding strength (% of the strongest interaction of this SH3 domain) [1],relative binding strength (% of the strongest interaction of this SH3 domain) [2],relative binding strength (% of the strongest interaction of this SH3 domain) [3],relative binding strength (% of the strongest interaction of this SH3 domain) [4],relative binding strength (% of the strongest interaction of this SH3 domain) [5],relative binding strength (% of the strongest interaction of this SH3 domain) [6],relative binding strength (% of the strongest interaction of this SH3 domain) [7],relative binding strength (% of the strongest interaction of this SH3 domain) [8],relative binding strength (% of the strongest interaction of this SH3 domain) [9],relative binding strength (% of the strongest interaction of this SH3 domain) [10],relative binding strength (% of the strongest interaction of this SH3 domain) [11],relative binding strength (% of the strongest interaction of this SH3 domain) [12],relative binding strength (% of the strongest interaction of this SH3 domain) [13],Binder
95%,58%,100%,37%,–,–,–,–,–,–,–,–,–,"GST-tagged ARHGAP10 SH3 domain (domain or fragment, human, UniProt A1A4S6 731-786, looked up) RKARAVYPCEAEHSSELSFEIGAIFEDVQTSREPGWLEGTLNGKRGLIPQNYVKLL"
–,–,–,–,7%,85%,15%,5%,100%,88%,49%,7%,49%,"GST-tagged RICS SH3 domain (domain or fragment, human, UniProt A7KAX9 262-320, looked up) GAAHVIKRYTARAPDELTLEVGDIVSVIDMPPKVLSTWWRGKHGFQVGLFPGHCVELIN"
